These results are taken from patent publication US20160011195A1.

The target in test [1] is PLK1 PBD protein (residues 367-603) (human) (UniProt P53350). Briefly: competitive FP, displacement of fluorescein tracer SEQ ID NO: 7 from PLK1 PBD (367-603).
Test [2] shares this target. Put plainly: competitive FP.
For test [3], the target named is PLK1 326-603 (longer PBD construct) (human) (UniProt P53350). Put plainly: competitive FP, displacement of fluorescent tracer peptide from PLK1 326-603.
PLK1 326-603 (longer PBD construct) (human), sequence (P53350 326-603 limits assumed): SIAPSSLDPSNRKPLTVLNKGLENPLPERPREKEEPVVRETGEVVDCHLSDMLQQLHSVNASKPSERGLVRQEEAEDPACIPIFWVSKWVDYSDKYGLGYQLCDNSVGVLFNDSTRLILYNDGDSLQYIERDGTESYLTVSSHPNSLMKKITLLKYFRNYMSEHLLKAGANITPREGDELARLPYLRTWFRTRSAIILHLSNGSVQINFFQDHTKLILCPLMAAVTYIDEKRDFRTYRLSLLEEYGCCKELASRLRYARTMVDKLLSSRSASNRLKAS

PLK1 PBD protein (residues 367-603) (human), sequence (P53350 367-603 limits assumed): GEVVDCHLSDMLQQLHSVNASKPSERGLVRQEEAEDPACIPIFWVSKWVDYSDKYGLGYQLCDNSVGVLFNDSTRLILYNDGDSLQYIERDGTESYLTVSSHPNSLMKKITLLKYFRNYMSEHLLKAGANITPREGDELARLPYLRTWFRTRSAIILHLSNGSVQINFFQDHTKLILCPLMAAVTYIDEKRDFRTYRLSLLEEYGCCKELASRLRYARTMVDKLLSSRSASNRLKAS

Turning to “3G1-S[pT]PNGL (4-ethylbenzoic acid) (Sample No. 5788) (peptide)”, the IC50 (in general, the concentration at which inhibition is half-maximal) in test [1] was found to be 16.5 µM.

Turning to “3G2-S[pT]PNGL (4-butylbenzoic acid) (Sample No. 5827) (peptide)”, the IC50 in test [1] amounted to 8.6 µM.

In test [2], “Ac-AHS[pT]AI (sample no. 5782) (peptide)” registered a fold higher IC50 (against Ac-LHS[pT]AI, sample no. 5781) of 3 fold. Also, in test [1], the concentration for half-maximal inhibition (IC50) worked out at 15 µM.

Regarding “Ac-LHS[pT]AI (sample no. 5781) (peptide)”, in test [2], the fold less potent than the parent peptide containing the N-terminal LLC is 6 fold and the fold more potent than the non-acetylated version (sample no. 5649) was 40 fold. The substance also displayed an IC50 in test [1] of 5 µM.

The substance “Ac-LLCS[pT]PNGL (sample no. 5821) (peptide)” registered an IC50 in test [1] of 0.5 µM.

“Ac-PLHS[pT]A (sample no. 5743) (peptide)”: in test [1], the IC50 was found to be 2 µM.

As to “LDCS[pT]PNGL (sample no. 5795) (peptide)”, the 50% inhibitory concentration (IC50) in test [1] is 3 µM.

For the substance LHS[pT]AI (sample no. 5649) (peptide), the IC50 in test [1] was 200 µM.

Turning to “LLCS[pT]PNGL, native phospho-CDC25c PBD binding sequence (sample no. 292) (peptide)”, the IC50 in test [3] stood at 1.3 µM; in test [1] it was 0.42 µM.

In test [1], S[pT]PNGL (sample no. 5714) (peptide) showed a half-inhibitory concentration (IC50) greater than 600 µM.
